Test results from patent publication US20160200799A1.
Like-named read-outs stand apart in the source and are kept apart here.

Legend:
Test in all cases: cell-based or functional assay
[1] = molecular target: Influenza virus A/Brisbane/59/2007 (H1N1) (Influenza A virus A/Brisbane/59/2007 (H1N1))
[2] = molecular target: Influenza virus A/Okuda/1957 (H2N2) (Influenza A virus A/Okuda/1957 (H2N2))
[3] = molecular target: Influenza virus A/Indonesia/5/2005/PR8-IBCDC-RG2 (H5N1) (Influenza A virus A/Indonesia/5/2005/PR8-IBCDC-RG2 (H5N1))
[4] = molecular target: Influenza virus A/Panama/2007/1999 (H3N2) (Influenza A virus A/Panama/2007/1999 (H3N2))
[5] = molecular target: Influenza virus A/Suita/1/2009pdm (H1N1 2009 pandemic) (Influenza A virus A/Suita/1/2009pdm (H1N1pdm))
[6] = molecular target: Influenza virus A/Brisbane/59/2007 (H1N1) (Influenza A virus A/Brisbane/59/2007 (H1N1)); remark: listed apart in the source
[7] = molecular target: Influenza virus A/Okuda/1957 (H2N2) (Influenza A virus A/Okuda/1957 (H2N2)); remark: listed apart in the source
[8] = molecular target: Influenza virus A/Indonesia/5/2005/PR8-IBCDC-RG2 (H5N1) (Influenza A virus A/Indonesia/5/2005/PR8-IBCDC-RG2 (H5N1)); remark: listed apart in the source
[9] = molecular target: Influenza virus A/Panama/2007/1999 (H3N2) (Influenza A virus A/Panama/2007/1999 (H3N2)); remark: listed apart in the source
[10] = molecular target: Influenza virus A/Suita/1/2009pdm (H1N1 2009 pandemic) (Influenza A virus A/Suita/1/2009pdm (H1N1pdm)); remark: listed apart in the source

For “F045-092 completely humanized IgG antibody (control anti-HA antibody)”, the Infection inhibition rate (%) [1] was 0%, the Infection inhibition rate (%) at 0.002 µg/mL [1] was 0% and the Infection inhibition rate (%) at 0.006 µg/mL [1] was 0%. For the same molecule, the Infection inhibition rate (%) at 0.024 µg/mL [1] was 0%, the Infection inhibition rate (%) at 0.391 µg/mL [1] was 0% and the Infection inhibition rate (%) at 1.6 µg/mL [1] was 0%. For the same molecule, the Infection inhibition rate (%) at 6.3 µg/mL [1] was 5.3%, the Infection inhibition rate (%) at 25.0 µg/mL [1] was 24.4% and the Infection inhibition rate (%) at 100.0 µg/mL [1] was 30.2%. For the same molecule, the Infection inhibition rate (%) at 200.0 µg/mL [1] was 58.4%, the Infection inhibition rate (%) [2] was 0% and the Infection inhibition rate (%) at 0.024 µg/mL [2] was 0%. It also gave an Infection inhibition rate (%) at 0.391 µg/mL [2] of 0%, an Infection inhibition rate (%) at 1.6 µg/mL [2] of 0% and an Infection inhibition rate (%) at 6.3 µg/mL [2] of 0%. The Infection inhibition rate (%) at 25.0 µg/mL [2] was 0%, the Infection inhibition rate (%) at 100.0 µg/mL [2] was 15.8% and the Infection inhibition rate (%) at 200.0 µg/mL [2] was 39.4%. It also gave an Infection inhibition rate (%) at 0.024 µg/mL [3] of 0%, an Infection inhibition rate (%) at 0.391 µg/mL [3] of 0% and an Infection inhibition rate (%) at 0.98 µg/mL [3] of 0%. For the same molecule, the Infection inhibition rate (%) at 1.6 µg/mL [3] was 0%, the Infection inhibition rate (%) at 6.3 µg/mL [3] was 0% and the Infection inhibition rate (%) at 25.0 µg/mL [3] was 14.3%. It also gave an Infection inhibition rate (%) at 100.0 µg/mL [3] of 28.2%, an Infection inhibition rate (%) at 200.0 µg/mL [3] of 38.6% and an Infection inhibition rate (%) [4] of 0%. It also gave an Infection inhibition rate (%) at 0.391 µg/mL [4] of 1.9%, an Infection inhibition rate (%) at 1.6 µg/mL [4] of 31.4% and an Infection inhibition rate (%) at 6.3 µg/mL [4] of 42.9%. For the same molecule, the Infection inhibition rate (%) at 25.0 µg/mL [4] was 96.7%, the Infection inhibition rate (%) at 100.0 µg/mL [4] was 99% and the Infection inhibition rate (%) at 200.0 µg/mL [4] was 99.5%. The Infection inhibition rate (%) [5] was 0%, the Infection inhibition rate (%) at 0.002 µg/mL [5] was 0% and the Infection inhibition rate (%) at 0.006 µg/mL [5] was 0%. The Infection inhibition rate (%) at 0.024 µg/mL [5] was 4.2%, the Infection inhibition rate (%) at 0.391 µg/mL [5] was 4.2% and the Infection inhibition rate (%) at 1.6 µg/mL [5] was 0%. It also gave an Infection inhibition rate (%) at 6.3 µg/mL [5] of 6%, an Infection inhibition rate (%) at 25.0 µg/mL [5] of 0% and an Infection inhibition rate (%) at 100.0 µg/mL [5] of 16.1%. For the same molecule, the Infection inhibition rate (%) at 200.0 µg/mL [5] was 15.1%.

B1: F083-336 completely humanized IgG antibody (antibody, V domains shown)
VH: QVQLQQSGAEVKQPGSSVKVSCKASGGIFRSNAISWVRQAPGQGLEWMGGIVALFGTANYAQKFQGRVTITADESTSTVYMELSSLRSEDTARYYCARNSGYHISGFYLDYWGQGTLVTVSS
VL: EIVLTQSPSSLSASVGDRVTITCRASQGISNYLAWYQQRPGKVPKLLIYTASTLLSGVPSRFSGGGSGTDYTLTISSLQPEDVATYYCQEYKSVPLTFGPGTKVEIK
For B1, the Infection inhibition rate (%) at 0.002 µg/mL [6] was 2.3%, the Infection inhibition rate (%) at 0.006 µg/mL [6] was 7.3% and the Infection inhibition rate (%) at 0.024 µg/mL [6] was 11.1%. For the same molecule, the Infection inhibition rate (%) at 0.391 µg/mL [6] was 42.4%, the Infection inhibition rate (%) at 0.98 µg/mL [6] was 32.4% and the Infection inhibition rate (%) at 1.6 µg/mL [6] was 72.1%. The Infection inhibition rate (%) at 6.3 µg/mL [6] was 90.5%, the Infection inhibition rate (%) at 25.0 µg/mL [6] was 97.3% and the Infection inhibition rate (%) at 100.0 µg/mL [6] was 100%. The Infection inhibition rate (%) at 200.0 µg/mL [6] was 100%, the Infection inhibition rate (%) [7] was 2.5% and the Infection inhibition rate (%) at 0.024 µg/mL [7] was 0%. For the same molecule, the Infection inhibition rate (%) at 0.391 µg/mL [7] was 19.9%, the Infection inhibition rate (%) at 1.6 µg/mL [7] was 39.8% and the Infection inhibition rate (%) at 6.3 µg/mL [7] was 81.5%. It also gave an Infection inhibition rate (%) at 25.0 µg/mL [7] of 86.7%, an Infection inhibition rate (%) at 100.0 µg/mL [7] of 85.9% and an Infection inhibition rate (%) at 200.0 µg/mL [7] of 98.9%. It also gave an Infection inhibition rate (%) [8] of 1%, an Infection inhibition rate (%) at 0.024 µg/mL [8] of 0% and an Infection inhibition rate (%) at 0.391 µg/mL [8] of 22.1%. The Infection inhibition rate (%) at 1.6 µg/mL [8] was 40.5%, the Infection inhibition rate (%) at 6.3 µg/mL [8] was 66.4% and the Infection inhibition rate (%) at 25.0 µg/mL [8] was 86.7%. For the same molecule, the Infection inhibition rate (%) at 100.0 µg/mL [8] was 89.3%, the Infection inhibition rate (%) at 200.0 µg/mL [8] was 98.5% and the Infection inhibition rate (%) [9] was 2.9%. It also gave an Infection inhibition rate (%) at 0.391 µg/mL [9] of 4.8%, an Infection inhibition rate (%) at 1.6 µg/mL [9] of 0% and an Infection inhibition rate (%) at 6.3 µg/mL [9] of 0%. For the same molecule, the Infection inhibition rate (%) at 25.0 µg/mL [9] was 0%, the Infection inhibition rate (%) at 100.0 µg/mL [9] was 0% and the Infection inhibition rate (%) at 200.0 µg/mL [9] was 0%. It also gave an Infection inhibition rate (%) [10] of 30.7%, an Infection inhibition rate (%) at 0.002 µg/mL [10] of 0% and an Infection inhibition rate (%) at 0.006 µg/mL [10] of 13.8%. The Infection inhibition rate (%) at 0.024 µg/mL [10] was 30.7%, the Infection inhibition rate (%) at 0.391 µg/mL [10] was 62.1% and the Infection inhibition rate (%) at 1.6 µg/mL [10] was 93.2%. It also gave an Infection inhibition rate (%) at 6.3 µg/mL [10] of 100%, an Infection inhibition rate (%) at 25.0 µg/mL [10] of 100% and an Infection inhibition rate (%) at 100.0 µg/mL [10] of 100%. It also gave an Infection inhibition rate (%) at 200.0 µg/mL [10] of 100%.
